The record followed here is PMC7948962, “Wzb of Vibrio vulnificus represents a new group of low-molecular-weight protein tyrosine phosphatases with a unique insertion in the W-loop” (The Journal of Biological Chemistry, 2021).

The data set concerns O=[N+]([O-])c1ccc(OP(=O)(O)O)cc1. Kind of data set: p-nitrophenol release, A405, initial velocity, Michaelis-Menten fit. The settings on record: 10 mM HEPES pH 7.5, 150 mM NaCl, 20 °C, 200 nM enzyme. The data set is classed as biochemical, Escherichia coli.

Excerpt: p-nitrophenol release, A405, initial velocity, Michaelis-Menten fit on EcWzb

In the case of EcWzb (Escherichia coli K-12), the Km is 3480 ± 240 µM, the turnover number (kcat) worked out at 2.84 ± 0.1 s⁻¹ and the kcat/Km amounted to 820 M⁻¹ s⁻¹.
Consider “EcWzb (Escherichia coli K-12; INS39AAAA)”, for which, under “A39_L40insAAAA”, the Michaelis constant (Km) came to 2050 ± 100 µM, the turnover number (kcat) was 6.09 ± 0.09 s⁻¹ and the specificity constant (kcat/Km) came to 2970 M⁻¹ s⁻¹.
On to “EcWzb (Escherichia coli K-12; INS39EKSR)”, for which, for the setting “A39_L40insEKSR”, the Michaelis-Menten constant (Km) amounted to 2530 ± 30 µM, the turnover number (kcat) was 9.34 ± 0.1 s⁻¹ and the kcat/Km turned out to be 3690 M⁻¹ s⁻¹.

Broadly, the Km is the concentration of substrate that gives half-maximal velocity. Broadly, the kcat is the number of substrate molecules converted per active site and unit of time at saturation. The kcat/Km is the second-order rate constant that governs catalysis at low substrate concentration.
